The target in this test is T1, mouse Plexin-B1 (20–535)-6xHis (mouse, UniProt Q8CJH3 20-535).
T1 chain: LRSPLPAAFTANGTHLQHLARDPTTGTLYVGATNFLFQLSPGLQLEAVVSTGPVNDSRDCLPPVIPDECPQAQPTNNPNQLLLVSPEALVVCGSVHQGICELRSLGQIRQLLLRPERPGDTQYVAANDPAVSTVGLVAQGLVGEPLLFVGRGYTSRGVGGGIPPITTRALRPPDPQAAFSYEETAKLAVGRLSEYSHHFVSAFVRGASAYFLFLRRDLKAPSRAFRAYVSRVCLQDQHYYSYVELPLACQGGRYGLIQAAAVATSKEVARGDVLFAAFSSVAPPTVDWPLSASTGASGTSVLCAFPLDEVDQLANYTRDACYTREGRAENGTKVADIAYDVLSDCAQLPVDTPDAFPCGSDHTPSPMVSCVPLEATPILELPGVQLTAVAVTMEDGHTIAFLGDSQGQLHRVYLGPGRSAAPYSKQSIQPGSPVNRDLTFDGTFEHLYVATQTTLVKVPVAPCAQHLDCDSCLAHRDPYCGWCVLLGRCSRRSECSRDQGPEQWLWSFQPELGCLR
Briefly: BLI. Background: In BLI a coated tip is dipped into the sample, and binding shifts an interference pattern.

B1: VHH15-Fc (Fc fusion)
chain: QVQLQESGGGLVQPGGSLRLSCAASGFRLDYYAIGWFRQAPGKEREGVLCISSSGGSINYADSVKGRFTISRDNAKNTVYLQMNSLKPEDTAVYYCGASSYNTQRAECYGMDYWGKGTQVTVSA
B1 came in with a koff of 0.002 s⁻¹.

B2: VHH14-Fc (Fc fusion)
chain: QVQLQESGGGLVQAGGSLRLSCAASGFTLGYYAIGWFRQAPGKEREEVSCINASGGSTFYEDSVKGRFTISRDNAKNTVFLQMNRLKPEDTAVYYCAAACEVVAVGYWGQGTQVTVSA
The molecule B2 had a koff of 1.66e-05 s⁻¹.

A word on the koff: it is the first-order rate constant of dissociation. Low values mean slow dissociation, high ones fast dissociation.

Values taken from PMC10206189 (2023).
